{"source": "patent US20210030857A1", "about": "(NGM BIOPHARMACEUTICALS, published 2021)", "key": {"[1]": {"target": "T1, human beta klotho mutant R703A on HEK-293T cells (human, UniProt Q86Z14 1-1044)", "T1 sequence": "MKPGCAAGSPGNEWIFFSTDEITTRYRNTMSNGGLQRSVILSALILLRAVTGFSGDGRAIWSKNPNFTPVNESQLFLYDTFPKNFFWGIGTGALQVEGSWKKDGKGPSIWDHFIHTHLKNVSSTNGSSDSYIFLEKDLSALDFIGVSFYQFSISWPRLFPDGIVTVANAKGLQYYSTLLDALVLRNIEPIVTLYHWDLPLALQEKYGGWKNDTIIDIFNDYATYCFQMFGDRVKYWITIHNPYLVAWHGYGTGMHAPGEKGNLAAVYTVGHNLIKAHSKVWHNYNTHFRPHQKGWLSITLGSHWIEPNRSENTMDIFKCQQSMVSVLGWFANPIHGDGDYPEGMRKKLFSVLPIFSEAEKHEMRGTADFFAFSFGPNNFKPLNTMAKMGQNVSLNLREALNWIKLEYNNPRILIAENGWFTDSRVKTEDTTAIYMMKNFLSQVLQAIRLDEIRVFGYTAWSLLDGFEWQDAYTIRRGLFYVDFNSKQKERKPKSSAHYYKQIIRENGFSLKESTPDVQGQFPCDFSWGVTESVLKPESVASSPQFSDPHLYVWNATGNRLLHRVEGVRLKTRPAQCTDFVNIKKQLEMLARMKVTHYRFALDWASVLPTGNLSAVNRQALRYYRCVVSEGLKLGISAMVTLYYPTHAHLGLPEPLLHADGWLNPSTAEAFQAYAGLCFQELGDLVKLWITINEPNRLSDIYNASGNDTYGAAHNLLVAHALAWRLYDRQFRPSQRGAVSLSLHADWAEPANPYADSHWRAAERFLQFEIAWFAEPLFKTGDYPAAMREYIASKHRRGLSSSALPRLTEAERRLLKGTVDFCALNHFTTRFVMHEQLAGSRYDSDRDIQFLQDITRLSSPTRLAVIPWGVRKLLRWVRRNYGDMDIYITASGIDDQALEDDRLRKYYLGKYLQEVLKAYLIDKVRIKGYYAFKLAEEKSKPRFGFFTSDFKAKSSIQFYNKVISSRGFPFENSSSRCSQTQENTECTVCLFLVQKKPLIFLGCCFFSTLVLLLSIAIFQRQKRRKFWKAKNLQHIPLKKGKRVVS", "experiment": "shotgun alanine mutagenesis, FACS on HEK-293T cells, antibody 0.5 µg/ml", "protocol": "(§1) In order to further identify specific binding residues within human beta klotho KL2 domain, shotgun mutagenesis was used to separately mutate individual residues of the KL2 domain of human beta klotho to an alanine (e.g., residues F508A-L1008A). […] For example, screening of the beta klotho mutant proteins was conducted at a concentration of 0.5 μg/ml for the humanized 5H23 antibody, 1.0 μg/ml for the Fab fragment, and 2.0 μg/ml for a positive control polyclonal anti-beta klotho antibodies.\n(§2) The resulting mapping identified three specific binding residues, H657, Y701 and R703, which were negative for binding by the humanized 5H23 antibody, but were positive for the control polyclonal anti-beta klotho antibodies. These residues represented amino acids whose side changes made the highest energetic contributions to the antibody-epitope interation as shown in Table 31. The locations of the three identified residues were modeled by showing them (dark spheres) at the equivalent positions on human cytosolic beta-glucosidase (PDB ID #2JFE; Tribolo et al., J. Mol. Biol. 370, 964-975 (2007)), identified by BLAST alignment of the two proteins as shown in FIG. 6."}, "[2]": {"target": "T2, human beta klotho mutant Y701A on HEK-293T cells (human, UniProt Q86Z14 1-1044)", "T2 sequence": "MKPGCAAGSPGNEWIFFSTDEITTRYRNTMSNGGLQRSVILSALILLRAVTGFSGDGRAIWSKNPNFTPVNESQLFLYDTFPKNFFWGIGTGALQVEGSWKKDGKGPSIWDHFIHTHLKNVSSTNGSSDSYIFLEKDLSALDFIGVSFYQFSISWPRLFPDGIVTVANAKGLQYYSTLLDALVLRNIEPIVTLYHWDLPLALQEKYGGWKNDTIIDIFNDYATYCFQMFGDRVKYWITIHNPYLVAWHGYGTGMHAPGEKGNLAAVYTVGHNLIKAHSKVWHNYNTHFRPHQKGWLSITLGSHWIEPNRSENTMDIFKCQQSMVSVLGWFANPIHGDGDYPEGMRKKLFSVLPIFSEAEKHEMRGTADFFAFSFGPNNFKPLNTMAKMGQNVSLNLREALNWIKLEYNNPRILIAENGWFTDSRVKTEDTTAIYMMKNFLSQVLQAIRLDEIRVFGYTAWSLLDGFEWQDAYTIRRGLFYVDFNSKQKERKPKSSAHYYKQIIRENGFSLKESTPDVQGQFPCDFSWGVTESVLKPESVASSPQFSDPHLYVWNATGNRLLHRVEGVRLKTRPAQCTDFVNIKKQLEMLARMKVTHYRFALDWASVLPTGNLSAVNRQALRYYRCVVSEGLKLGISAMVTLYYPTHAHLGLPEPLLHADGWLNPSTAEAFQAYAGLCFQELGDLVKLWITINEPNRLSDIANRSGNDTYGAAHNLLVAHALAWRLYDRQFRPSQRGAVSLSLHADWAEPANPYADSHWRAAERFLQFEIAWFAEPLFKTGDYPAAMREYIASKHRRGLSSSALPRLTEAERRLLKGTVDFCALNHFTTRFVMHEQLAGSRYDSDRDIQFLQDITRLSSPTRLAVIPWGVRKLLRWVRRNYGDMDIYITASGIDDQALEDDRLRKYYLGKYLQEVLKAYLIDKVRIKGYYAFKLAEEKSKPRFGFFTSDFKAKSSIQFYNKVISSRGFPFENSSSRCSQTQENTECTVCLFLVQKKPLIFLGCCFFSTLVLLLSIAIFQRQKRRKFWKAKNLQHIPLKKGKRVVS", "experiment": "shotgun alanine mutagenesis, FACS on HEK-293T cells, antibody 0.5 µg/ml", "protocol": "as §1, §2"}}}
{"binder": "humanized 5H23 antibody (VH SEQ ID NO: 271 and VL SEQ ID NO: 276) (antibody, V domains shown, also called h5H23; h5H23 (Prep 1)) VH: QVQLQQSGAEVKKPGASVKVSCKASGYTFTSYDINWVRQAPGQGLEWIGWIYPGDGSTKYNEKFKGKATITRDTSASTAYMELSSLRSEDTAVYFCARSDYYGSRSFAYWGQGTLVTVSS VL: DIVMTQSPDSLAVSLGERATINCRASKSVSTSGYVYMHWYQQKPGQPPKLLIYLASYLESGVPDRFSGSGSGTDFTLTISSVQAEDVAVYYCQHSRDLTFPFGGGTKLEIK", "values": [{"measurement": "Binding Reactivity (% WT)", "setting": "[1]", "result": 1.64, "unit": "% WT"}, {"measurement": "Binding Reactivity (% WT)", "setting": "[2]", "result": 0.64, "unit": "% WT"}]}
